Where two headings read alike, the source gives them in different places. Each block holds one binder with its values, some of them ahead of it.
Tests used:
human CD276 protein [1] = molecular target: T1, human CD276 protein (human, UniProt Q5ZPR3 29-534); experiment: cell-based or functional assay
T1 sequence (looked up): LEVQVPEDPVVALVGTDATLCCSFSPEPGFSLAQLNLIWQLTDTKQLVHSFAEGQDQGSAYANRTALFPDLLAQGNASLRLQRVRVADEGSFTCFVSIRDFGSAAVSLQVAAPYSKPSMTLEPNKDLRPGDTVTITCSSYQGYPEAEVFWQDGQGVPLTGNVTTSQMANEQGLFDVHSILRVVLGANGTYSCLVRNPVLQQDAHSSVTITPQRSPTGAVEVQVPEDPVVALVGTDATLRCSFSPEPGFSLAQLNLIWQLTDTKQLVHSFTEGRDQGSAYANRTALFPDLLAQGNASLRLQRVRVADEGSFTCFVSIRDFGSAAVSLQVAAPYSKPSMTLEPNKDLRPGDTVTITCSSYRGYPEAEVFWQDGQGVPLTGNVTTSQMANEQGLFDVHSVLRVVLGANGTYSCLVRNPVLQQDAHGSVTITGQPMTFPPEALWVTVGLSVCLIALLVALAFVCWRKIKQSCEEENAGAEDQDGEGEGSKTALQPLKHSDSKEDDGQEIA

human CD276 protein [2] = molecular target: T1, human CD276 protein; experiment: cell-based or functional assay; remark: listed apart in the source
human CD276 protein [3] = molecular target: T1, human CD276 protein; experiment: FACS on SKOV3 cells
Method in brief: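 Human IgG1 chimeric antibodies were tested for binding to trypsin-detached SKOV3 ovarian cancer cells by flow cytometry, with cells washed in FACS buffer and kept in the dark before acquisition. Titration read-out was MFI plotted against antibody concentration (nM).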

human CD276 protein [4] = molecular target: T1, human CD276 protein; experiment: FACS titration on SKOV3 cells (MFI against Conc. (nM)); unit taken from the concentration axis
human CD276 protein [5] = molecular target: T1, human CD276 protein; experiment: as above; remark: listed apart in the source
Text: Sequences of 31 mouse antibodies from Table 5 were selected to generate and produce human IgG1 chimeric antibodies. The binding affinity of these antibodies and bench mark antibody, Enoblituzumab (see U.S. Pat. No. 8,802,091, MGA271, specifically with a construct designated as hBRCA84D-2) and MGC018 (an antibody-drug-conjugate, in which the mAb MGA017 (human IgG1) is conjugated via a cleavable linker to the prodrug seco-DUocarmycin hydroxyBenzamide Azaindole (DUBA), an alkylating agent that can damage DNA in both dividing and non-dividing cells, thereby causing cell death) with human patient derived ovarian cancer cell line, SKOV3, was determined by FACS analysis.
1. Digested cells using Trypsin (1×); Centrifuged the harvested cells at 300 g for 3 min and discarding the supernatant. […] 2. Washed the cells 2 times with FACS buffer by centrifuging at 300 g for 3 min and discarding the supernatant. [0445] 3. […] Kept the cells in dark for FACS analysis.

[6] = molecular target: T2, HUMAN B7H3 (Biacore analyte) (human, UniProt Q5ZPR3 29-461, limits assumed); experiment: SPR, Biacore 8K, antibody captured, B7H3 as analyte, 1:1 binding
T2 construct: also called hB7H3
T2 sequence (looked up): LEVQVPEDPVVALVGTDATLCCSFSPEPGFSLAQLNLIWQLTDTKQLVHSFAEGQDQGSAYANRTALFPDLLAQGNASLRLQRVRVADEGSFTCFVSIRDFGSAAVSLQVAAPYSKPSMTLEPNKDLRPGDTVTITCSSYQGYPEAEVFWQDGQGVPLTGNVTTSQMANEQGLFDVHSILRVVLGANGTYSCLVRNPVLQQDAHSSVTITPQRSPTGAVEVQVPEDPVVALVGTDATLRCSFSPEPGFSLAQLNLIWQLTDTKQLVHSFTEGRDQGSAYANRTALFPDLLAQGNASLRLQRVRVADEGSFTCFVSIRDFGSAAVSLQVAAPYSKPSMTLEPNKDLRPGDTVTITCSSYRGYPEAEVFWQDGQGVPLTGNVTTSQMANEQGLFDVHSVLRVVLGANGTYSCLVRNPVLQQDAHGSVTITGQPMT

human CD276 protein [7] = molecular target: T1, human CD276 protein; experiment: cell-based or functional assay; remark: listed apart in the source
[8] = molecular target: T2, HUMAN B7H3 (Biacore analyte); experiment: SPR, Biacore 8K, antibody captured, B7H3 as analyte, 1:1 binding; remark: listed apart in the source

B1: 30-C7-C11-D4 (human IgG1 chimeric antibody) (antibody, V domains shown)
VH: EVQLVESGPGLVKPSQSLSLTCTVTGYSITSDYAWNWIRQFPGNKLEWMGYISHSGSTSYNPSLKSRISITRDTSKNQFFLQLNSVTTEDTATYYCARSLGRRWYFDVWGAGTTVTVSS
VL: DIVMTQSPSSLAMSVGQKVTLSCKSSQSLLNSSTQKNYLAWYQQKPGQSPKLLVYFASTRDSGVPDRFIGSGSGTEFTLTISSVQAEDLADYFCQQHYIIPFTFGAGTKLEIK
notes: human IgG1 chimeric antibody of the mouse clone
EC50 of antibody induced CDC effect (human CD276 protein [1]): 3.21 nM
Top cytotoxicity (%), CDC (human CD276 protein [1]): 60.3%
EC50 of antibody induced ADCC effect on SKOV3 (human CD276 protein [2]): 0.0327 µg/mL
EC50 (human CD276 protein [3]): 0.282 µg/mL
MFI (Max) (human CD276 protein [3]): 4270
EC50 (human CD276 protein [4]): 7.98 nM

B2: hVH2-hVL1-10 (antibody, V domains shown)
VH: EVQLVESGGGLVQPGGSLRLSCATSGFTLSDYYMSWVRQAPGKGLEWVSFMRNKANGYTTEYSASVRGRFTISRDTSKSTIYLQMNSLRAEDTAVYYCVRDRDGRPFAYWGQGTLVTVSS
VL: DIVMTQSPDSLAVSLGERATINCKSSQSLLNSINQKNFLTWYQQKPGQPPKLLIYWASTRESGVPDRFSGSGSGTDFTLTISSLQAEDLAVYYCQNDYTYPLTFGQGTKLEIK
EC50 (human CD276 protein [5]): 1.92 nM

B3: hVH3-hVL3-10 (antibody, V domains shown)
VH: EVQLVESGGGLVQPGGSLRLSCATSGFTLSDYYMSWVRQAPGKGLEWVGFMRNKANGYTTEYSASVRGRFTISRDTSKSSIYLQMNSLKTEDTAVYYCVRDRDGRPFAYWGQGTLVTVSS
VL: DIQMTQSPSSLSASVGDRVTITCKSSQSLLNSINQKNFLTWYQQKPGKAPKLLIYWASTRESGVPSRFSGSGSGTDFTLTISSLQPEDLATYYCQNDYTYPLTFGQGTKLEIK
EC50 (human CD276 protein [5]): 2.75 nM

B4: hVH4-hVL2-10 (antibody, V domains shown)
VH: EVQLVESGGGLIQPGGSLRLSCATSGFTLSDYYMSWVRQPPGKGLEWVSFMRNKANGYTTEYSASVRGRFTISRDTSKSTIYLQMNSLRAEDTAVYYCVRDRDGRPFAYWGQGTLVTVSS
VL: DIVMTQSPLSLPVTPGEPASISCKSSQSLLNSINQKNFLTWYLQKPGQSPQLLIYWASTRESGVPDRFSGSGSGTDFTLKISRVEAEDLGVYYCQNDYTYPLTFGQGTKLEIK
EC50 (human CD276 protein [5]): 4.43 nM

B5: hVH5-hVL1-10 (antibody, V domains shown)
VH: EVQLVESGGGLVQPGRSLRLSCTTSGFTLSDYYMSWVRQAPGKGLEWVGFMRNKANGYTTEYSASVRGRFTISRDTSKSIIYLQMNSLKTEDTAVYYCVRDRDGRPFAYWGQGTLVTVSS
VL: DIVMTQSPDSLAVSLGERATINCKSSQSLLNSINQKNFLTWYQQKPGQPPKLLIYWASTRESGVPDRFSGSGSGTDFTLTISSLQAEDLAVYYCQNDYTYPLTFGQGTKLEIK
EC50 (human CD276 protein [5]): 2.63 nM

B7: hVH4-hVL1-10 (antibody, V domains shown)
VH: EVQLVESGGGLIQPGGSLRLSCATSGFTLSDYYMSWVRQPPGKGLEWVSFMRNKANGYTTEYSASVRGRFTISRDTSKSTIYLQMNSLRAEDTAVYYCVRDRDGRPFAYWGQGTLVTVSS
VL: DIVMTQSPDSLAVSLGERATINCKSSQSLLNSINQKNFLTWYQQKPGQPPKLLIYWASTRESGVPDRFSGSGSGTDFTLTISSLQAEDLAVYYCQNDYTYPLTFGQGTKLEIK
EC50 (human CD276 protein [5]): 1.9 nM

B10: hVH3-hVL5-30 (antibody, V domains shown)
VH: QVQLQESGPGLVKPSETLSLTCTVSGYSITSDYAWNWIRQPPGKGLEWIGYISHSGSTSYNPSLKSRVTISRDTSKNQFSLKLSSVTAADTAVYYCARSLGRRWYFDVWGQGTTVTVSS
VL: DIVMTQSPLSLPVTPGEPASISCKSSQSLLNSSTQKNYLAWYLQKPGQSPQLLIYFASTRDSGVPDRFSGSGSGTDFTLKISRVEAEDLGVYFCQQHYIIPFTFGQGTKLEIK
EC50 (human CD276 protein [4]): 6.37 nM

B11: hVH3-hVL2-30 (antibody, V domains shown)
VH: QVQLQESGPGLVKPSETLSLTCTVSGYSITSDYAWNWIRQPPGKGLEWIGYISHSGSTSYNPSLKSRVTISRDTSKNQFSLKLSSVTAADTAVYYCARSLGRRWYFDVWGQGTTVTVSS
VL: DIVMTQSPDSLAVSLGERATINCKSSQSLLNSSTQKNYLAWYQQKPGQPPKLLIYFASTRDSGVPDRFSGSGSGTDFTLTISSLQAEDLAVYFCQQHYIIPFTFGQGTKLEIK
EC50 (human CD276 protein [4]): 5.93 nM

B14: hVH4-hVL5-30 (antibody, V domains shown)
VH: QVQLQESGPGLVKPSQTLSLTCAVYGYSITSDYAWNWIRQPPGKGLEWIGYISHSGSTSYNPSLKSRVTISRDTSKNQFSLKLSSVTAADTAVYYCARSLGRRWYFDVWGQGTTVTVSS
VL: DIVMTQSPLSLPVTPGEPASISCKSSQSLLNSSTQKNYLAWYLQKPGQSPQLLIYFASTRDSGVPDRFSGSGSGTDFTLKISRVEAEDLGVYFCQQHYIIPFTFGQGTKLEIK
EC50 (human CD276 protein [4]): 8.52 nM

Continued, in another order:

EC50 (human CD276 protein [5]): 2.98 nM
B6: hVH5-hVL3-10 (antibody, V domains shown)
VH: EVQLVESGGGLVQPGRSLRLSCTTSGFTLSDYYMSWVRQAPGKGLEWVGFMRNKANGYTTEYSASVRGRFTISRDTSKSIIYLQMNSLKTEDTAVYYCVRDRDGRPFAYWGQGTLVTVSS
VL: DIQMTQSPSSLSASVGDRVTITCKSSQSLLNSINQKNFLTWYQQKPGKAPKLLIYWASTRESGVPSRFSGSGSGTDFTLTISSLQPEDLATYYCQNDYTYPLTFGQGTKLEIK

Kd [6]: 0.785 nM
koff [6]: 0.000198 s⁻¹
kon [6]: 252000 M⁻¹ s⁻¹
EC50 of antibody induced CDC effect (human CD276 protein [1]): 2.74 nM
EC50 of antibody induced ADCC effect on SKOV3 (human CD276 protein [2]): 0.237 µg/mL
EC50 (human CD276 protein [3]): 0.822 µg/mL
MFI (Max) (human CD276 protein [3]): 5640
EC50 (human CD276 protein [5]): 2.33 nM
Kd [8]: 0.415 nM
koff [8]: 8.97e-05 s⁻¹
kon [8]: 216000 M⁻¹ s⁻¹
B8: 10-G6-C4-B2 (human IgG1 chimeric antibody) (antibody, V domains shown)
VH: EVQLVESGGGLVQPGGSLRLSCATSGFTLSDYYMSWVRQPPGKAPEWLGFMRNKANGYTTEYSASVRGRFTISRDTSQSIIYLQMNTLRAEDGATYYCVRDRDGRPFAYWGQGTLVTVSA
VL: DIVMTQSPSSLTVTAGEKVTMSCKSSQSLLNSINQKNFLTWYQQKPGQPPKLLIYWASTRESGVPDRFTGSGSGTDFTLTISSVQAEDLAIYYCQNDYTYPLTFGTGTKLELK
notes: as for B1
Top cytotoxicity (%), CDC (human CD276 protein [1]): 93.5%
IC50 of indirect ADC cytotoxicity on SKOV3 (human CD276 protein [7]): 0.008 nM

EC50 (human CD276 protein [5]): 2.76 nM
B9: mVH5-mVL4-10 (antibody, V domains shown)
VH: EVQLVESGGGLVQPGGSLRLSCATSGFTLSDYYMSWVRQPPGKAPEWLGFMRNKANAYTTEYSASVRGRFTISRDTSQSIIYLQMNTLRAEDGATYYCVRDREGRPFAYWGQGTLVTVSA
VL: DIVMTQSPSSLTVTAGEKVTMSCKSSQSLLNAINQKNFLTWYQQKPGQPPKLLIYWASTRESGVPDRFTGSGSGTDFTLTISSVQAEDLAIYYCQNDYTYPLTFGTGTKLELK

EC50 (human CD276 protein [4]): 9.51 nM
B12: hVH2-hVL1-30 (antibody, V domains shown)
VH: QVQLQESGPGLVKPSETLSLTCTVSGYSITSDYAWNWIRQPPGKGLEWIGYISHSGSTSYNPSLKSRVTISRDTSKNQFSLKLSSVTAADTAVYYCARSLGRRWYFDVWGQGTTVTVSS
VL: DIQMTQSPSSLSASVGDRVTITCKSSQSLLNSSTQKNYLAWYQQKPGKAPKLLIYFASTRDSGVPSRFSGSGSGTDFTLTISSLQPEDLATYFCQQHYIIPFTFGQGTKLEIK

EC50 (human CD276 protein [4]): 9.77 nM
B13: hVH4-hVL2-30 (antibody, V domains shown)
VH: QVQLQESGPGLVKPSQTLSLTCAVYGYSITSDYAWNWIRQPPGKGLEWIGYISHSGSTSYNPSLKSRVTISRDTSKNQFSLKLSSVTAADTAVYYCARSLGRRWYFDVWGQGTTVTVSS
VL: DIVMTQSPDSLAVSLGERATINCKSSQSLLNSSTQKNYLAWYQQKPGQPPKLLIYFASTRDSGVPDRFSGSGSGTDFTLTISSLQAEDLAVYFCQQHYIIPFTFGQGTKLEIK
